This assay concerns the target human DNA polymerase theta (Polθ), polymerase domain, wild type (human). In words: SEC.

In turn, “human DNA polymerase theta (Polθ), polymerase domain, wild type (domain or fragment)” returned a stoichiometry N of 2.

Values taken from PMC4351179.
